Source: IntAct's records for PubMed 23918937

B1: Protein maternal effect lethal 26 (Caenorhabditis elegans), Q94420 (parent)
chain: MEPRIDGGVFIGGIGNSGNEMCSNGVPALGVSSQTEIKVEKVQHTWTVKNFSHCYQEYLENFVYLQRGDEQLTWSIKIYPKGNGENNKDFVFLCLNRVINNNVKAGKIGFKSQFKLRTAENKDIEMRIHPNPSHSDYVSYIKRDVLFPQIMPRDMIIVNVEIDVAVETITTTNEPIQFEPTNSEQQLIEDYQRLFSQELLCDFAINVNGKIIRAHKAVLAARSPVFNAMLTHQDTDEAKSSMMYINDMDYDVIYEMVYYIYCGRCNKDITDMATALLIAADKYRLEELKSHCEKYLVENINIENACSLLIIGDLYSAPKLRKRAVTYILARPKNVTGTPGWEDILKGHPNLITDIFSQIDRQSSTGATSSVSNLPGVPMDIPGITGNIVPPPSGL
B2: Protein maternal effect lethal 26 (Caenorhabditis elegans), Q94420 (parent)
chain: B1 chain
partner: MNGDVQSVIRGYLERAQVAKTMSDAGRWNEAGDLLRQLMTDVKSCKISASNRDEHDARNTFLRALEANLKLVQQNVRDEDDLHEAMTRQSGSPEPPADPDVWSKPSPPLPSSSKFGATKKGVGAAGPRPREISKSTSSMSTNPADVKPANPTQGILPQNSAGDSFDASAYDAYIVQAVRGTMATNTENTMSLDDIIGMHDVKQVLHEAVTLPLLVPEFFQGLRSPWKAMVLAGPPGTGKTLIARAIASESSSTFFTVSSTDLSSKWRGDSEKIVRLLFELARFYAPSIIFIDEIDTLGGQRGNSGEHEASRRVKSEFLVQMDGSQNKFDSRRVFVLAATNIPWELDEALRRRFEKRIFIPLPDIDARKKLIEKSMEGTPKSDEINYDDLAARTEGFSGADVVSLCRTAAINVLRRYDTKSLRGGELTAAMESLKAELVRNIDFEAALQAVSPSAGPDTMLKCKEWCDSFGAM
B3: Meiotic spindle formation protein mei-1 (Caenorhabditis elegans), P34808 (parent)
chain: B2 partner
partner: B1 chain

Variants of: B1
Settings: with pp4r1_caeel ppfr-1, G5ECH5
Chain of pp4r1_caeel ppfr-1, G5ECH5 (G5ECH5 whole entry): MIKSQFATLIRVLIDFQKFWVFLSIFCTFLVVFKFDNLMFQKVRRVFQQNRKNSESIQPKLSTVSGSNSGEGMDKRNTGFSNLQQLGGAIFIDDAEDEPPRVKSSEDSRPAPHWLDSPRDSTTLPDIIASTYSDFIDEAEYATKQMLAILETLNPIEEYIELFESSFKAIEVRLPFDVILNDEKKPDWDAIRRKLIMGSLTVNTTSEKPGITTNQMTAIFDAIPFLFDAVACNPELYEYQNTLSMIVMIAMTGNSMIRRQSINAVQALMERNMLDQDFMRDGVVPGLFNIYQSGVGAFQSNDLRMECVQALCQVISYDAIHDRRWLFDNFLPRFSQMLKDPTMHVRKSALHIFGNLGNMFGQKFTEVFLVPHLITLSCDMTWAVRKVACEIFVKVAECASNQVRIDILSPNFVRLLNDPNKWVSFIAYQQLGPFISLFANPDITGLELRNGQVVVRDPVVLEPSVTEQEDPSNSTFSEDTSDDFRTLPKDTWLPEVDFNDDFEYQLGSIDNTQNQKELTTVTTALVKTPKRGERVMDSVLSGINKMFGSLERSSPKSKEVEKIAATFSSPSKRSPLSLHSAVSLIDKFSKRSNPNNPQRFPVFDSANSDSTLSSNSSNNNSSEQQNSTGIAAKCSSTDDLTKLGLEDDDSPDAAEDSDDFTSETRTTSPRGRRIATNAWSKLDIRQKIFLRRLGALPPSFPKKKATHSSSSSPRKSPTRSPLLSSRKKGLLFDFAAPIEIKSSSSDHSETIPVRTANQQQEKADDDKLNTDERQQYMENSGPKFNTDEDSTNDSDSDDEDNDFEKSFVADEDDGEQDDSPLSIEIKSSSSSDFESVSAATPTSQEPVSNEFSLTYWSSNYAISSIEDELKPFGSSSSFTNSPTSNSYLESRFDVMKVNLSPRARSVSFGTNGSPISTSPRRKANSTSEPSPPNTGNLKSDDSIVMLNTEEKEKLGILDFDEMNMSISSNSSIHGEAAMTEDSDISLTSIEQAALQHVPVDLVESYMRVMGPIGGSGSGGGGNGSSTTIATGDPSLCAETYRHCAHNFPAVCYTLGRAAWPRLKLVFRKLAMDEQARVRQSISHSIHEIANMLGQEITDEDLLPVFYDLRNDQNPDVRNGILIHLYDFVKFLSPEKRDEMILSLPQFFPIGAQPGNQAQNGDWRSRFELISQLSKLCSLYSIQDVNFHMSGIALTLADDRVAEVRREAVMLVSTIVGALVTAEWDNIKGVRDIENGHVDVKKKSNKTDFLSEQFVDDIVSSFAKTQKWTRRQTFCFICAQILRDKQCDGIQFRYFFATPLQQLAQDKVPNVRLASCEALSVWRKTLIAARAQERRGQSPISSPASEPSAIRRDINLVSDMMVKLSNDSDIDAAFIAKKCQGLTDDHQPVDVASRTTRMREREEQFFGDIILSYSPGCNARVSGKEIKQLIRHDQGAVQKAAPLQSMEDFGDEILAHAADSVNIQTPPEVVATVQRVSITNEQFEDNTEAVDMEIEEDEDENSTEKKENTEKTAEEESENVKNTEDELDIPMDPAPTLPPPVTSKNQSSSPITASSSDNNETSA
In the case of C94Y, the “effect of a mutation on the interaction” value is reported as “disrupting interaction strength”.

Variants of: B2
Settings: with ktna1_caeel mei-1, P34808
C94Y was tested, and the “effect of a mutation on the interaction” value was “disrupting interaction strength”.

Variants of: B3
Settings: with mel26_caeel mel-26, Q94420
In the case of S92A, the “effect of a mutation on the interaction” value is reported as “disrupting interaction strength”.
